Biological target: T.ni-cell expression optimized human P2X4 construct (P2X4^T.ni) (human) (UniProt Q99571)

stoichiometry N: 3
Substance: T.ni-cell expression optimized human P2X4 construct (P2X4^T.ni) (from UniProt Q99571-1 1-388) (receptor)

Reference: doi:10.1101/2025.09.05.674548
